Reference: paper PMC10397247

Experiments:
P6mS = molecular target: T1, P6mS; assay: two-hybrid library CCNG1;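 also: natural log of median RNA to DNA barcode read ratio; higher means stronger binding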
T1 chain: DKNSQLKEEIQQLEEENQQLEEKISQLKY

P4mS = molecular target: T2, P4mS; assay: two-hybrid library CCNG1;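 also: natural log of median RNA to DNA barcode read ratio; higher means stronger binding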
T2 chain: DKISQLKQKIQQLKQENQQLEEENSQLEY

P5mS = molecular target: T3, P5mS; assay: two-hybrid library CCNG1;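 also: natural log of median RNA to DNA barcode read ratio; higher means stronger binding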
T3 chain: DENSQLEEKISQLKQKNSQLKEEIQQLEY

P7mS = molecular target: T4, P7mS; assay: two-hybrid library CCNG1;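 also: natural log of median RNA to DNA barcode read ratio; higher means stronger binding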
T4 chain: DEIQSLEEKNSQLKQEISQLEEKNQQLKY

P8mS = molecular target: T5, P8mS; assay: two-hybrid library CCNG1;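 also: natural log of median RNA to DNA barcode read ratio; higher means stronger binding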
T5 chain: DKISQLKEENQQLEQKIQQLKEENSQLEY

P9mS = molecular target: T6, P9mS; assay: two-hybrid library CCNG1;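 also: natural log of median RNA to DNA barcode read ratio; higher means stronger binding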
T6 chain: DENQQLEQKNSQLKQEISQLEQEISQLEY

4H2873-AA = molecular target: T7, 4H2873-AA; assay: two-hybrid library CCmax; conditions: mean of both orientations
T7 chain: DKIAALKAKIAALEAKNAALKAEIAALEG

4H2705-AA = molecular target: T8, 4H2705-AA; assay: two-hybrid library CCmax; conditions: mean of both orientations
T8 chain: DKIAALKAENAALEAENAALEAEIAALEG

4H2687-AA = molecular target: T9, 4H2687-AA; assay: two-hybrid library CCmax; conditions: mean of both orientations
T9 chain: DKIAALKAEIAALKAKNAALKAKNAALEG

4H2187-AA = molecular target: T10, 4H2187-AA; assay: two-hybrid library CCmax; conditions: mean of both orientations
T10 chain: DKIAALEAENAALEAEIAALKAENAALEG

4H816-AA = molecular target: T11, 4H816-AA; assay: two-hybrid library CCmax; conditions: mean of both orientations
T11 chain: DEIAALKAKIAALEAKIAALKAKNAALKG

4H2985-AA = molecular target: T12, 4H2985-AA; assay: two-hybrid library CCmax; conditions: mean of both orientations
T12 chain: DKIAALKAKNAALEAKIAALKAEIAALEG

4H3409-AA = molecular target: T13, 4H3409-AA; assay: two-hybrid library CCmax; conditions: mean of both orientations
T13 chain: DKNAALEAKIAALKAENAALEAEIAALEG

4H87-AA = molecular target: T14, 4H87-AA; assay: two-hybrid library CCmax
T14 chain: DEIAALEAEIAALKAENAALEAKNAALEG

4H3940-AA = molecular target: T15, 4H3940-AA; assay: two-hybrid library CCmax; conditions: mean of both orientations
T15 chain: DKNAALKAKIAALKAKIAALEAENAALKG

4H510-AA = molecular target: T16, 4H510-AA; assay: two-hybrid library CCmax; conditions: mean of both orientations
T16 chain: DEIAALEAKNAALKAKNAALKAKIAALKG

4H2512-AA = molecular target: T17, 4H2512-AA; assay: two-hybrid library CCmax; conditions: mean of both orientations
T17 chain: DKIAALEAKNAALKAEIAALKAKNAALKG

4H3134-AA = molecular target: T18, 4H3134-AA; assay: two-hybrid library CCmax; conditions: mean of both orientations
T18 chain: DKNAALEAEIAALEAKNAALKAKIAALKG

4H1985-AA = molecular target: T19, 4H1985-AA; assay: two-hybrid library CCmax
T19 chain: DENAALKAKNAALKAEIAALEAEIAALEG

4H2646-AA = molecular target: T20, 4H2646-AA; assay: two-hybrid library CCmax; conditions: mean of both orientations
T20 chain: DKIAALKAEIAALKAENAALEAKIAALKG

4H233-AA = molecular target: T21, 4H233-AA; assay: two-hybrid library CCmax; conditions: mean of both orientations
T21 chain: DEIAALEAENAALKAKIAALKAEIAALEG

4H2758-AA = molecular target: T22, 4H2758-AA; assay: two-hybrid library CCmax; conditions: mean of both orientations
T22 chain: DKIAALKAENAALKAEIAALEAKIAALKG

4H390-AA = molecular target: T23, 4H390-AA; assay: two-hybrid library CCmax; conditions: mean of both orientations
T23 chain: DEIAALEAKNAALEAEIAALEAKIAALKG

4H278-AA = molecular target: T24, 4H278-AA; assay: two-hybrid library CCmax; conditions: mean of both orientations
T24 chain: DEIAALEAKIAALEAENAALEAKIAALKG

4H3625-AA = molecular target: T25, 4H3625-AA; assay: two-hybrid library CCmax; conditions: mean of both orientations
T25 chain: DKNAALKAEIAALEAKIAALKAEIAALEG

4H775-AA = molecular target: T26, 4H775-AA; assay: two-hybrid library CCmax; conditions: mean of both orientations
T26 chain: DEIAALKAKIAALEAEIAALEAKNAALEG

## DKISQLKQKIQQLKQENQQLEEENSQLEY [P4mS]
P6mS
  interaction score: -1.48
P4mS
  interaction score: -1.66
P5mS
  interaction score: -1.04
P7mS
  interaction score: -1.14
P8mS
  interaction score: -1.85
P9mS
  interaction score: -1.28

## DENAALKAKNAALKAEIAALEAEIAALEG [4H1985-AA]
4H2873-AA
  interaction score: -1.18
4H2705-AA
  interaction score: -1.05
4H2687-AA
  interaction score: -1.92
4H2187-AA
  interaction score: -2.04
4H816-AA
  interaction score: -0.103
4H2985-AA
  interaction score: -0.418
4H3409-AA
  interaction score: -1.05
4H87-AA
  interaction score: -1.37
4H3940-AA
  interaction score: -0.542
4H510-AA
  interaction score: -0.896
4H2512-AA
  interaction score: -1.41
4H3134-AA
  interaction score: -0.682
4H1985-AA
  interaction score: -1.91
4H2646-AA
  interaction score: 0.352
4H233-AA
  interaction score: 0.704
4H2758-AA
  interaction score: 0.628
4H390-AA
  interaction score: 1.06
4H278-AA
  interaction score: -1.45
4H3625-AA
  interaction score: -0.122
4H775-AA
  interaction score: -1.28
